Key:
TLR3 = molecular target: T1, TLR3 (Mus musculus, UniProt Q99MB1); experiment: poly(I:C)-induced TNFα in RAW264.7 cells, ELISA; format: cell-based, murine; conditions: peptide 5, 20 or 50 μM, 25 μg/ml Poly(I:C), 24 h
T1 construct: endogenous in cells; host or cells: RAW264.7
Description: FIGS. 10A and B are bar charts showing the effect of A464 on poly(I:C)-induced TNFα in murine RAW264.7 cells. Cells were seeded in 96 well plates (1.5×10^5 cells/nil) 24 hours before treatment. […] Supernatants were collected 24 hours after stimulation and assayed for TNFα by ELISA (A) and cells were assayed for viability by the MTT assay (B). No peptides were added to the control wells (black bars). Data is representative of at least three experiments each performed in triplicate and is expressed as mean±s.d;
(§1) Cytokine and chemokine production from cells or mouse serum was measured by ELISA using Duoset kits from R&D systems, according to the manufacturer's instructions.
In order to determine whether A464 (SEQ ID No. 20) was specific for TLR4, other TLR pathways were next assayed for sensitivity to A464 (SEQ ID No. 20). A scrambled version of A464 (SEQ ID No. 20) peptide was designed to use as a further control peptide, and this had the sequence: […] (ConA464, SEQ ID No. 32). The A464R (SEQ ID No. 20) and ConA464 (SEQ ID No. 32) peptides were assayed for inhibition of TLR2 signalling in THP-1 cells. Pam3CysK4 (S-(2,3-bis(palmitoyloxy)-(2-RS)-propyl)-N-palmitoyl-(R)-Cys-(S)-Ser-(S)-Lys(4)) is a synthetic tripalmitoylated lipopeptide that is recognized by a TLR2/TLR1 heterodimer and leads to activation of NFκB through a Mal- and MyD88-dependent pathway. […]

TLR9 = molecular target: T2, TLR9 (Mus musculus, UniProt Q9EQU3); experiment: CpG-induced TNFα in RAW264.7 cells, ELISA; format: cell-based, murine; conditions: peptide 5 or 20 μM 1 h before CpG, supernatant 24 h
T2 construct: using the murine macrophage cell line RAW264.7; endogenous in cells; host or cells: RAW264.7
T2 sequence (Q9EQU3 26-1032): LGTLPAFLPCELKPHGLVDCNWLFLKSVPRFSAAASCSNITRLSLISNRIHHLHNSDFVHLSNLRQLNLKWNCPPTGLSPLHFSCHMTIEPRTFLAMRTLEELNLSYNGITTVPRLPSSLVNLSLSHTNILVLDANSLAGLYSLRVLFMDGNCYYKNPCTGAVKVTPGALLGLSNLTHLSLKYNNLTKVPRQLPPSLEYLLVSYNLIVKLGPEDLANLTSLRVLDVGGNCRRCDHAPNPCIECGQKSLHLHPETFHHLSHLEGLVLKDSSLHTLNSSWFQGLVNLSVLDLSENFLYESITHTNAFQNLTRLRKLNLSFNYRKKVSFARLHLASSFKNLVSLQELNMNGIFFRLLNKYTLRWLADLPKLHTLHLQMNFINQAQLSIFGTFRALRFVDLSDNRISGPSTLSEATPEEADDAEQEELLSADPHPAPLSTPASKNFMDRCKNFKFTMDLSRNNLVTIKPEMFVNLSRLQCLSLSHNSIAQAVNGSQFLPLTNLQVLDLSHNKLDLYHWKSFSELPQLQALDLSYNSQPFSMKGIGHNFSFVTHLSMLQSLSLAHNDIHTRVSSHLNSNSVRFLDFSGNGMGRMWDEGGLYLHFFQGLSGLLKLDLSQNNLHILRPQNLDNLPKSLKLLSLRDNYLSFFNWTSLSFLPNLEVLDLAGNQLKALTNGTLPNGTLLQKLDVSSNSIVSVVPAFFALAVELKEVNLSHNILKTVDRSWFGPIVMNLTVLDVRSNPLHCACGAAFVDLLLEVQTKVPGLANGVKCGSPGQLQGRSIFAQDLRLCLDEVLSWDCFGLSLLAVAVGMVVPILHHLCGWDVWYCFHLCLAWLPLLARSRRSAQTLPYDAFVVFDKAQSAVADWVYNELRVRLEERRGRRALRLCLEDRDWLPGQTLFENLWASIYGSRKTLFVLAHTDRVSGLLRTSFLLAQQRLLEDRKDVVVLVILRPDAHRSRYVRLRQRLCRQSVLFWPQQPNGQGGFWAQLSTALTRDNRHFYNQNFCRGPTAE
Description: FIGS. 2A and B are bar charts showing the effect of peptides derived from A46 on CpG-induced TNFα in murine RAW264.7 cells. A46 peptides were added to the cells at a concentration of 5 or 20 μM 1 hour before stimulating with […] CpG. Supernatants were collected 24 hours after stimulation and assayed for TNFα by ELISA. No peptides were added into the control wells (black bars). (A) peptides A461-A467 (SEQ ID NO. 17 to 23). (B) peptides A468-A4614 (SEQ ID NO. 24 to 30) (excluding A4612 SEQ ID NO. 28). Data is representative of at least two experiments each performed in triplicate and is expressed as mean±s.d;
as §1
These peptides were initially screened for effects on TLR-induced gene induction in vitro using the murine macrophage cell line RAW264.7. Unmethylated CpG dinucleotides of bacterial DNA sequences are detected by TLR9, which leads to production of pro-inflammatory cytokines and chemokines, including TNFα via a MyD88-dependent pathway (Latz et al, 2004). […] The effect of the peptides on two TLR9-induced cytokines, namely TNFα and MIP-2, was measured by ELISA. TNFα is NFκB-dependent, and MIP-2 as well as NFκB also requires IRFs for transcriptional activation (De Filippo et al, 2008). […]

T1 sequence (Q99MB1 26-905): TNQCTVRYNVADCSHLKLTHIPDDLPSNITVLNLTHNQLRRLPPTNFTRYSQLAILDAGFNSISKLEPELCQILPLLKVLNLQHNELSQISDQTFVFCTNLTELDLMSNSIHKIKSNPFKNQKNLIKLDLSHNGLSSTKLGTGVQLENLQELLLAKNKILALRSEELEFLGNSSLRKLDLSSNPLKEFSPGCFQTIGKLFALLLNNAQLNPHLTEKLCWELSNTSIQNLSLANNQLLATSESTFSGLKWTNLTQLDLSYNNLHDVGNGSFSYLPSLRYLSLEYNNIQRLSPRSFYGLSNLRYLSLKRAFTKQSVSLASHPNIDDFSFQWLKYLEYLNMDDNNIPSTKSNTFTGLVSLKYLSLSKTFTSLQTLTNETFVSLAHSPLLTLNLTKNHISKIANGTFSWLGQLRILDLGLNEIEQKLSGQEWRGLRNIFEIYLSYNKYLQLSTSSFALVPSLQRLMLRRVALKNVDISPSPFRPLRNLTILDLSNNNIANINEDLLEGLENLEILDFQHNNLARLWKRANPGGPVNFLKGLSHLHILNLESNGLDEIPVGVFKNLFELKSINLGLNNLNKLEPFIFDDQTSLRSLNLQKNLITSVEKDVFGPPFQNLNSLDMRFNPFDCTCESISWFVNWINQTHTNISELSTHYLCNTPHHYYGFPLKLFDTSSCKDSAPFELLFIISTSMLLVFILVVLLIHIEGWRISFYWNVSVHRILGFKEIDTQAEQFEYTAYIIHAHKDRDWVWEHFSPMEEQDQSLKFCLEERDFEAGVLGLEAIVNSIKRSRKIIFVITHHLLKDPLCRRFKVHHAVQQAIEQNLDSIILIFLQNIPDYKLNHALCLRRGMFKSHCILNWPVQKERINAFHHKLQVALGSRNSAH

KYSFKLILAEYRRRRRRRRR [Peptide A464]
inhibition of poly(I:C)-induced mTNFα production (TLR3): some inhibition of mTNFα production in response to stimulation with 25 mg/ml Poly(I:C) was seen but only at a concentration of 50 μM
inhibition of CpG-induced TNFα production (TLR9): little or no effect

— US8722052B2, “Vaccinia virus protein A46 peptide and use thereof” (priority 2008, dated 2014)
